Test results taken from the supplement of paper PMC11246515.
± gives the standard deviation of the averaged measurements.

Experiment: total protein half-life in vivo (active degradation + dilution); higher = more stable protein
[1] = E. coli NCM3722 delta-clpP delta-lon delta-hslV, growth: N-lim chemostat, doubling time 6 h
[2] = E. coli NCM3722 delta-clpP, growth: N-lim chemostat, doubling time 6 h
[3] = E. coli NCM3722 delta-hslV, growth: N-lim chemostat, doubling time 6 h
[4] = E. coli NCM3722 delta-lon, growth: N-lim chemostat, doubling time 6 h
[5] = E. coli NCM3722 delta-smpB, growth: N-lim chemostat, doubling time 6 h
[6] = wild type E. coli NCM3722, growth: C-lim chemostat, doubling time 3 h
[7] = wild type E. coli NCM3722, growth: C-lim chemostat, doubling time 6 h
[8] = wild type E. coli NCM3722, growth: C-lim chemostat, doubling time 12 h
[9] = wild type E. coli NCM3722, growth: N-lim chemostat, doubling time 6 h
[10] = wild type E. coli NCM3722, growth: N-lim chemostat, doubling time 12 h
[11] = wild type E. coli NCM3722, growth: P-lim chemostat, doubling time 6 h
[12] = wild type E. coli NCM3722, growth: P-lim chemostat, doubling time 12 h

| Sequence | total protein half-life in vivo [1] | total protein half-life in vivo [2] | total protein half-life in vivo [3] | total protein half-life in vivo [4] | total protein half-life in vivo [5] | total protein half-life in vivo [6] | total protein half-life in vivo [7] | total protein half-life in vivo [8] | total protein half-life in vivo [9] | total protein half-life in vivo [10] | total protein half-life in vivo [11] | total protein half-life in vivo [12] |
| --- | --- | --- | --- | --- | --- | --- | --- | --- | --- | --- | --- | --- |
| MSDTNYAVIYDLHSHTTASDGCLTPEALVHRAVEMRVGTLAITDHDTTAAIAPAREEISRSGLALNLIPGVEISTVWENHEIHIVGLNIDITHPLMCEFLAQQTERRNQRAQLIAERLEKAQIPGALEGAQRLAQGGAVTRGHFARFLVECGKASSMADVFKKYLARGKTGYVPPQWCTIEQAIDVIHHSGGKAVLAHPGRYNLSAKWLKRLVAHFAEHHGDAMEVAQCQQSPNERTQLAALARQHHLWASQGSDFHQPCPWIELGRKLWLPAGVEGVWQLWEQPQNTTEREL | 4.2 ± 0.46 h | 2.69 ± 0.6 h | 2 h | 4.05 ± 1.8 h | 1.76 ± 0.21 h | 1.42 ± 0.78 h | 3.06 h | 5.96 h | 2.24 ± 0.19 h | 2.55 ± 0.59 h | 2.72 h | 4.57 ± 0.45 h |
| MELRHLRYFVAVAQALNFTRAAEKLHTSQPSLSSQIRDLENCVGVPLLVRDKRKVALTAAGECFLQDALAILEQAENAKLRARKIVQEDRQLTIGFVPSAEVNLLPKVLPMFRLRQPDTLIELVSLITTQQEEKIRRGELDVGLMRHPVYSPEIDYLELFDEPLVVVLPVDHPLAHEKEITAAQLDGVNFVSTDPVYSGSLAPIVKAWFAQENSQPNIVQVATNILVTMNLVGMGLGVTLIPGYMNNFNTGQVVFRPIAGNVPSIALLMAWKKGEMKPALRDFIAIVQERLASVTA | 5.58 ± 0.39 h | – | – | – | – | 0.275 h | – | – | – | – | – | – |
| MLRMTPLASAIVALLLGIEAYAAEETFDTHFMIGGMKDQQVANIRLDDNQPLPGQYDIDIYVNKQWRGKYEIIVKDNPQETCLSREVIKRLGINSDNFASGKQCLTFEQLVQGGSYTWDIGVFRLDFSVPQAWVEELESGYVPPENWERGINAFYTSYYLSQYYSDYKASGNNKSTYVRFNSGLNLLGWQLHSDASFSKTNNNPGVWKSNTLYLERGFAQLLGTLRVGDMYTSSDIFDSVRFRGVRLFRDMQMLPNSKQNFTPRVQGIAQSNALVTIEQNGFVVYQKEVPPGPFAITDLQLAGGGADLDVSVKEADGSVTTYLVPYAAVPNMLQPGVSKYDLAAGRSHIEGASKQSDFVQAGYQYGFNNLLTLYGGSMVANNYYAFTLGAGWNTRIGAISVDATKSHSKQDNGDVFDGQSYQIAYNKFVSQTSTRFGLAAWRYSSRDYRTFNDHVWANNKDNYRRDENDVYDIADYYQNDFGRKNSFSANMSQSLPEGWGSVSLSTLWRDYWGRSGSSKDYQLSYSNNLRRISYTLAASQAYDENHHEEKRFNIFISIPFDWGDDVSTPRRQIYMSNSTTFDDQGFASNNTGLSGTVGSRDQFNYGVNLSHQHQGNETTAGANLTWNAPVATVNGSYSQSSTYRQAGASVSGGIVAWSGGVNLANRLSETFAVMNAPGIKDAYVNGQKYRTTNRNGVVIYDGMTPYRENHLMLDVSQSDSEAELRGNRKIAAPYRGAVVLVNFDTDQRKPWFIKALRADGQSLTFGYEVNDIHGHNIGVVGQGSQLFIRTNEVPPSVNVAIDKQQGLSCTITFGKEIDESRNYICQ | – | – | – | – | – | – | – | – | – | – | – | 9.63 h |
| MDAMKYNDLRDFLTLLEQQGELKRITLPVDPHLEITEIADRTLRAGGPALLFENPKGYSMPVLCNLFGTPKRVAMGMGQEDVSALREVGKLLAFLKEPEPPKGFRDLFDKLPQFKQVLNMPTKRLRGAPCQQKIVSGDDVDLNRIPIMTCWPEDAAPLITWGLTVTRGPHKERQNLGIYRQQLIGKNKLIMRWLSHRGGALDYQEWCAAHPGERFPVSVALGADPATILGAVTPVPDTLSEYAFAGLLRGTKTEVVKCISNDLEVPASAEIVLEGYIEQGETAPEGPYGDHTGYYNEVDSFPVFTVTHITQREDAIYHSTYTGRPPDEPAVLGVALNEVFVPILQKQFPEIVDFYLPPEGCSYRLAVVTIKKQYAGHAKRVMMGVWSFLRQFMYTKFVIVCDDDVNARDWNDVIWAITTRMDPARDTVLVENTPIDYLDFASPVSGLGSKMGLDATNKWPGETQREWGRPIKKDPDVVAHIDAIWDELAIFNNGKSA [P0AAB4] | 6.47 ± 0.5 h | 6.032 ± 0.049 h | 6.88 ± 0.78 h | 6.27 ± 0.71 h | 6.38 ± 0.54 h | 2.98 ± 0.37 h | 6.29 ± 0.21 h | 11.3 ± 0.45 h | 5.82 ± 0.23 h | 11.4 ± 0.32 h | 5.99 ± 0.093 h | 12.5 ± 0.62 h |
| MNIIAIMGPHGVFYKDEPIKELESALVAQGFQIIWPQNSVDLLKFIEHNPRICGVIFDWDEYSLDLCSDINQLNEYLPLYAFINTHSTMDVSVQDMRMALWFFEYALGQAEDIAIRMRQYTDEYLDNITPPFTKALFTYVKERKYTFCTPGHMGGTAYQKSPVGCLFYDFFGGNTLKADVSISVTELGSLLDHTGPHLEAEEYIARTFGAEQSYIVTNGTSTSNKIVGMYAAPSGSTLLIDRNCHKSLAHLLMMNDVVPVWLKPTRNALGILGGIPRREFTRDSIEEKVAATTQAQWPVHAVITNSTYDGLLYNTDWIKQTLDVPSIHFDSAWVPYTHFHPIYQGKSGMSGERVAGKVIFETQSTHKMLAALSQASLIHIKGEYDEEAFNEAFMMHTTTSPSYPIVASVETAAAMLRGNPGKRLINRSVERALHFRKEVQRLREESDGWFFDIWQPPQVDEAECWPVAPGEQWHGFNDADADHMFLDPVKVTILTPGMDEQGNMSEEGIPAALVAKFLDERGIVVEKTGPYNLLFLFSIGIDKTKAMGLLRGLTEFKRSYDLNLRIKNMLPDLYAEDPDFYRNMRIQDLAQGIHKLIRKHDLPGLMLRAFDTLPEMIMTPHQAWQRQIKGEVETIALEQLVGRVSANMILPYPPGVPLLMPGEMLTKESRTVLDFLLMLCSVGQHYPGFETDIHGAKQDEDGVYRVRVLKMAG | – | 5.56 ± 0.19 h | 5.32 ± 0.2 h | 5.36 ± 0.26 h | 5.38 ± 0.089 h | 3.21 ± 0.1 h | 7.21 ± 0.98 h | 10.7 ± 3.7 h | 6.16 ± 1.5 h | 10.7 ± 0.83 h | 6.88 ± 1.5 h | 11.92 ± 0.053 h |
| MNVFSQTQRYKALFWLSLFHLLVITSSNYLVQLPVSILGFHTTWGAFSFPFIFLATDLTVRIFGAPLARRIIFAVMIPALLISYVISSLFYMGSWQGFGALAHFNLFVARIATASFMAYALGQILDVHVFNRLRQSRRWWLAPTASTLFGNVSDTLAFFFIAFWRSPDAFMAEHWMEIALVDYCFKVLISIVFFLPMYGVLLNMLLKRLADKSEINALQAS | – | – | – | – | – | 2.3 h | – | – | – | – | – | – |
| MKKIIETQRAPGAIGPYVQGVDLGSMVFTSGQIPVCPQTGEIPADVQDQARLSLENVKAIVVAAGLSVGDIIKMTVFITDLNDFATINEVYKQFFDEHQATYPTRSCVQVARLPKDVKLEIEAIAVRSA [P0AGL2] | – | – | 4.94 ± 0.13 h | 5.08 ± 0.99 h | 3.9 h | 2.79 h | 5.42 h | 9.66 ± 1.9 h | – | 7.12 h | 6.2 h | 10.6 ± 0.78 h |
| MHCPFCFAVDTKVIDSRLVGEGSSVRRRRQCLVCNERFTTFEVAELVMPRVVKSNDVREPFNEEKLRSGMLRALEKRPVSSDDVEMAINHIKSQLRATGEREVPSKMIGNLVMEQLKKLDKVAYIRFASVYRSFEDIKEFGEEIARLED [P0A8D0] | 6.05 ± 0.84 h | 5.91 ± 0.41 h | 4.362 ± 0.017 h | – | 4 ± 0.71 h | 2.98 ± 1.4 h | 4.6 ± 0.41 h | 9.06 ± 0.4 h | 4.15 ± 0.58 h | 6.44 ± 0.094 h | 4.677 ± 0.038 h | 10.76 ± 0.082 h |
